Data as given in patent publication CN105968201A (UNIV NANCHANG, dated 2016).

Columns and labels:
重组表达的PSMA胞外区蛋白 = target: T1, 重组表达的PSMA胞外区蛋白 (UniProt Q04609 44-750, limits assumed); assay: indirect phage ELISA, PSMA extracellular region coated at 5 μg/mL, HRP-anti-M13 detection
T1 construct: extracellular domain; Expressed from vector pRAG2a in HEK-293 cells, purified with HisTrap FF Crude and detected with an anti-His antibody; also called 前列腺特异性膜抗原膜外区; PSMA蛋白

[1] = target: T2, 前列腺特异性膜抗原 (PSMA) on LNCaP cells (UniProt Q04609 1-750, limits assumed); assay: cell ELISA and immunofluorescence on fixed LNCaP cells (PSMA-positive) against MKN45 cells (PSMA-negative), anti-M13 detection
T2 construct: whole, on cells; Cells were fixed with 4% paraformaldehyde before the assay; also called prostate specific membrane antigen; LNCaP细胞(表达PSMA)
T2 sequence (Q04609 whole entry): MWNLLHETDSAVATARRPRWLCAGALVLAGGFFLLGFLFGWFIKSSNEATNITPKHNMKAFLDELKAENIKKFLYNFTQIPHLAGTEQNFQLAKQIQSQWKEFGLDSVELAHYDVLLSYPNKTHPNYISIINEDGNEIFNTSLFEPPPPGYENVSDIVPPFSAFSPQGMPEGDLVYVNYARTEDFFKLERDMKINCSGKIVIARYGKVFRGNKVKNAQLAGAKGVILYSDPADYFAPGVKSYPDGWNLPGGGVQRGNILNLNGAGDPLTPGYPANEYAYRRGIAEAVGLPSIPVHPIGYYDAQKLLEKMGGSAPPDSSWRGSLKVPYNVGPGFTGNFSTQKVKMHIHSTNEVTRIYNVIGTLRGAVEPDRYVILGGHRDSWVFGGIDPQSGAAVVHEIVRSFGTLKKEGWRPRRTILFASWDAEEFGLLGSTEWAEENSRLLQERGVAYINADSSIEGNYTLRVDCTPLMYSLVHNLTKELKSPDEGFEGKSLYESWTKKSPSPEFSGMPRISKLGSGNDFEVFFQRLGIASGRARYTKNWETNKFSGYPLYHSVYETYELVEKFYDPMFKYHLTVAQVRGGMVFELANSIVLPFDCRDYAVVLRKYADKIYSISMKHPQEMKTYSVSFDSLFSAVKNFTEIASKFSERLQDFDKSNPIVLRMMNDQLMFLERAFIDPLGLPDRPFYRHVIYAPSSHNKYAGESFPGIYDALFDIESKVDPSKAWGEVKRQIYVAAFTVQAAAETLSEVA

T1 sequence (Q04609 44-750 limits assumed): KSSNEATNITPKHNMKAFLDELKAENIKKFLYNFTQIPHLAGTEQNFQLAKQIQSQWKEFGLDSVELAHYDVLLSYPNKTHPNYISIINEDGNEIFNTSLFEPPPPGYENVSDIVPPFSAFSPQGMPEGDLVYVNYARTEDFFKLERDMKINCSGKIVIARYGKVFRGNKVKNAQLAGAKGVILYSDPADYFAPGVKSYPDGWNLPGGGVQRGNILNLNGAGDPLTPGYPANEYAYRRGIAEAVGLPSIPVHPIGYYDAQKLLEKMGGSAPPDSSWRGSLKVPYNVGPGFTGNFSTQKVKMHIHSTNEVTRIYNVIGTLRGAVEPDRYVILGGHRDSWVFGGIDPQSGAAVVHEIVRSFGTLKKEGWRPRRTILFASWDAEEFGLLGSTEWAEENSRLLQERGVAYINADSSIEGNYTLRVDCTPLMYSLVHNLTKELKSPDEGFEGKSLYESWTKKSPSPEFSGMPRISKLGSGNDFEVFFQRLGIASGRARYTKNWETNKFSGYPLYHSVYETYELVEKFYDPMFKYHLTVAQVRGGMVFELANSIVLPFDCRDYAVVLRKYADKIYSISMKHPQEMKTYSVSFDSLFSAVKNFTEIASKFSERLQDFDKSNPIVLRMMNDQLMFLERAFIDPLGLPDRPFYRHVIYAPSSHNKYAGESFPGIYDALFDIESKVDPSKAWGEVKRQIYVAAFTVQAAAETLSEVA

binding result (重组表达的PSMA胞外区蛋白): binds
binding result [1]: binds
B1: 抗前列腺特异性膜抗原单域重链抗体噬菌体阳性克隆 (VHH)
VHH: QVQLVESGGGLVQAGGSLRLSCAASGRFSRYAMGWFRQAPGKEREFIASISRSGGTTYYGDSVKGRFTISRDNAKNTVYLQMNTLKAEDTAVYYCAARTKGFGLRGQYHYWGQGTQVTVSS
notes: also called 针对前列腺特异性膜抗原的单域重链抗体阳性克隆; 展示本发明所述纳米抗体的噬菌体克隆
